Results taken from US20140087995A1 (published 2014).
Numbered stars: 1 amine (or outer) side, 2 acyl side, 3 side chain; on linkers, the order of the positions; unused ones are H or OH. Bridge positions count the residues as written; N and C are the ends. Side chains are listed from the residue outwards. Ends that are not written are not given here. * marks the point of attachment. C20 diacid = O=C(O)CCCCCCCCCCCCCCCCCCC(=O)*; γGlu = O=C(O)[C@H](CCC(=O)[*:2])N[*:1]; AEEA = NCCOCCOCC(=O)O

Key:
[1] = target: T1, human calcitonin receptor (human, UniProt P30988 25-474); test: cell-based or functional assay
T1 sequence (looked up): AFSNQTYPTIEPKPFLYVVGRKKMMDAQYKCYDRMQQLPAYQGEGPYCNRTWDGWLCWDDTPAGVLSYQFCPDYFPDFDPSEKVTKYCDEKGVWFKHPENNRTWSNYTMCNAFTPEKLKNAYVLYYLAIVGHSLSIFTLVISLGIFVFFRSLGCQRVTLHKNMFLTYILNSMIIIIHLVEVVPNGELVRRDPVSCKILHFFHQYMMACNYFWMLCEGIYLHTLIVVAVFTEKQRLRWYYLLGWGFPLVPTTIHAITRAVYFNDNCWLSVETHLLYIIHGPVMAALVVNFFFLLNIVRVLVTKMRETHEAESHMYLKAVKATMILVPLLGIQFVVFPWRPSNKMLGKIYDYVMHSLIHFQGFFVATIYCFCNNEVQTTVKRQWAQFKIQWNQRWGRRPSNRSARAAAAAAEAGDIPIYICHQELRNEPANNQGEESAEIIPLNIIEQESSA

[2] = target: T2, human amylin receptor (amylin 3(a) receptor: human calcitonin receptor plus RAMP-3) (human, UniProt P30988 25-474; O60896 24-148, limits assumed); test: cell-based or functional assay
T2 sequence (looked up) 1: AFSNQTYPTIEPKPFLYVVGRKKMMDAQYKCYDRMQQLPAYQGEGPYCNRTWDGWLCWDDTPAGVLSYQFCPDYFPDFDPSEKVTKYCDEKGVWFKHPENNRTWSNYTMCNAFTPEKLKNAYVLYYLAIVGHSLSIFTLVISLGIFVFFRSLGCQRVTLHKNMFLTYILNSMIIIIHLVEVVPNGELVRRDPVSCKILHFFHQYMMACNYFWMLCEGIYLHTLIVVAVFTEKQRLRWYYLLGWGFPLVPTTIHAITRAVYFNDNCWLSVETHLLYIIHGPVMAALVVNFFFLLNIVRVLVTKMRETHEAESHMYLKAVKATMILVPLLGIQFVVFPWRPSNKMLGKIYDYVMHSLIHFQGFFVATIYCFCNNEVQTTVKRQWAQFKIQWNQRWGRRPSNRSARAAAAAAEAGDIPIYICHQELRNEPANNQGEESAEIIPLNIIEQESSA
T2 sequence (looked up) 2: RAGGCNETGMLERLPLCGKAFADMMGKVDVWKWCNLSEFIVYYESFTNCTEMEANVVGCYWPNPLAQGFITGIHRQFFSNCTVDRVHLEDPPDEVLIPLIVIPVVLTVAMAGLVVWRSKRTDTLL

B1: N^ε-[(4S)-4-carboxy-4-(19-carboxynonadecanoylamino)butanoyl]Lys[Arg1,Arg17,Pro21,Pro27,His35]-h-amylin (peptide)
peptide: K([γGlu-C20 diacid])RCNTATCATQRLANFLRHSSPNFGAIPSSTNVGSHTY-NH2
modifications: disulfide 3-8; N-terminus assumed
SMILES: CC[C@H](C)[C@H](NC(=O)[C@H](C)NC(=O)CNC(=O)[C@H](Cc1ccccc1)NC(=O)[C@H](CC(N)=O)NC(=O)[C@@H]1CCCN1C(=O)[C@H](CO)NC(=O)[C@H](CO)NC(=O)[C@H](Cc1c[nH]cn1)NC(=O)[C@H](CCCNC(=N)N)NC(=O)[C@H](CC(C)C)NC(=O)[C@H](Cc1ccccc1)NC(=O)[C@H](CC(N)=O)NC(=O)[C@H](C)NC(=O)[C@H](CC(C)C)NC(=O)[C@H](CCCNC(=N)N)NC(=O)[C@H](CCC(N)=O)NC(=O)[C@@H](NC(=O)[C@H](C)NC(=O)[C@@H]1CSSC[C@H](NC(=O)[C@H](CCCNC(=N)N)NC(=O)[C@@H](N)CCCCNC(=O)CC[C@H](NC(=O)CCCCCCCCCCCCCCCCCCC(=O)O)C(=O)O)C(=O)N[C@@H](CC(N)=O)C(=O)N[C@@H]([C@@H](C)O)C(=O)N[C@@H](C)C(=O)N[C@@H]([C@@H](C)O)C(=O)N1)[C@@H](C)O)C(=O)N1CCC[C@H]1C(=O)N[C@@H](CO)C(=O)N[C@@H](CO)C(=O)N[C@H](C(=O)N[C@@H](CC(N)=O)C(=O)N[C@H](C(=O)NCC(=O)N[C@@H](CO)C(=O)N[C@@H](Cc1c[nH]cn1)C(=O)N[C@H](C(=O)N[C@@H](Cc1ccc(O)cc1)C(N)=O)[C@@H](C)O)C(C)C)[C@@H](C)O
notes: Synthetic acylated analogue of human amylin, extended by Lys at the N-terminus; also called compound 44
[1]
  hCTR funct. EC50: 4750 pM
[2]
  Ratio hCT/hAmylin funct.: 24 ratio
  hAmylin-R funct. EC50: 198 pM

B2: N^-1-[(4S)-4-carboxy-4-(19-carboxynonadecanoylamino)butanoyl]-Gly[Arg1,Arg17,Pro21,Pro27,His35]-h-amylin (peptide)
peptide: {C20 diacid-γGlu}-GRCNTATCATQRLANFLRHSSPNFGAIPSSTNVGSHTY-NH2
modifications: disulfide 3-8
SMILES: CC[C@H](C)[C@H](NC(=O)[C@H](C)NC(=O)CNC(=O)[C@H](Cc1ccccc1)NC(=O)[C@H](CC(N)=O)NC(=O)[C@@H]1CCCN1C(=O)[C@H](CO)NC(=O)[C@H](CO)NC(=O)[C@H](Cc1c[nH]cn1)NC(=O)[C@H](CCCNC(=N)N)NC(=O)[C@H](CC(C)C)NC(=O)[C@H](Cc1ccccc1)NC(=O)[C@H](CC(N)=O)NC(=O)[C@H](C)NC(=O)[C@H](CC(C)C)NC(=O)[C@H](CCCNC(=N)N)NC(=O)[C@H](CCC(N)=O)NC(=O)[C@@H](NC(=O)[C@H](C)NC(=O)[C@@H]1CSSC[C@H](NC(=O)[C@H](CCCNC(=N)N)NC(=O)CNC(=O)CC[C@H](NC(=O)CCCCCCCCCCCCCCCCCCC(=O)O)C(=O)O)C(=O)N[C@@H](CC(N)=O)C(=O)N[C@@H]([C@@H](C)O)C(=O)N[C@@H](C)C(=O)N[C@@H]([C@@H](C)O)C(=O)N1)[C@@H](C)O)C(=O)N1CCC[C@H]1C(=O)N[C@@H](CO)C(=O)N[C@@H](CO)C(=O)N[C@H](C(=O)N[C@@H](CC(N)=O)C(=O)N[C@H](C(=O)NCC(=O)N[C@@H](CO)C(=O)N[C@@H](Cc1c[nH]cn1)C(=O)N[C@H](C(=O)N[C@@H](Cc1ccc(O)cc1)C(N)=O)[C@@H](C)O)C(C)C)[C@@H](C)O
notes: Synthetic acylated analogue of human amylin, extended by Gly at the N-terminus; also called compound 47
[1]
  hCTR funct. EC50: 1320 pM
[2]
  Ratio hCT/hAmylin funct.: 6 ratio
  hAmylin-R funct. EC50: 222 pM

B3: N^ε1-[2-[2-[2-(19-carboxynonadecanoylamino)ethoxy]ethoxy]acetyl]-[Arg17,Pro21,Pro27]-h-amylin (peptide)
peptide: K([AEEA-C20 diacid])CNTATCATQRLANFLRHSSPNFGAIPSSTNVGSNTY-NH2
modifications: disulfide 2-7; N-terminus assumed
SMILES: CC[C@H](C)[C@H](NC(=O)[C@H](C)NC(=O)CNC(=O)[C@H](Cc1ccccc1)NC(=O)[C@H](CC(N)=O)NC(=O)[C@@H]1CCCN1C(=O)[C@H](CO)NC(=O)[C@H](CO)NC(=O)[C@H](Cc1c[nH]cn1)NC(=O)[C@H](CCCNC(=N)N)NC(=O)[C@H](CC(C)C)NC(=O)[C@H](Cc1ccccc1)NC(=O)[C@H](CC(N)=O)NC(=O)[C@H](C)NC(=O)[C@H](CC(C)C)NC(=O)[C@H](CCCNC(=N)N)NC(=O)[C@H](CCC(N)=O)NC(=O)[C@@H](NC(=O)[C@H](C)NC(=O)[C@@H]1CSSC[C@H](NC(=O)[C@@H](N)CCCCNC(=O)COCCOCCNC(=O)CCCCCCCCCCCCCCCCCCC(=O)O)C(=O)N[C@@H](CC(N)=O)C(=O)N[C@@H]([C@@H](C)O)C(=O)N[C@@H](C)C(=O)N[C@@H]([C@@H](C)O)C(=O)N1)[C@@H](C)O)C(=O)N1CCC[C@H]1C(=O)N[C@@H](CO)C(=O)N[C@@H](CO)C(=O)N[C@H](C(=O)N[C@@H](CC(N)=O)C(=O)N[C@H](C(=O)NCC(=O)N[C@@H](CO)C(=O)N[C@@H](CC(N)=O)C(=O)N[C@H](C(=O)N[C@@H](Cc1ccc(O)cc1)C(N)=O)[C@@H](C)O)C(C)C)[C@@H](C)O
notes: Synthetic acylated analogue of human amylin; also called compound 43
[1]
  hCTR funct. EC50: 920 pM
[2]
  Ratio hCT/hAmylin funct.: 6.5 ratio
  hAmylin-R funct. EC50: 141 pM

B4: N^ε1-[2-[2-[2-[[(4S)-4-carboxy-4-(19-carboxynonadecanoylamino)butanoyl]amino]ethoxy]ethoxy]acetyl]-[Arg17,Pro21,Pro27]-h-amylin (peptide)
peptide: K([AEEA-γGlu-C20 diacid])CNTATCATQRLANFLRHSSPNFGAIPSSTNVGSNTY-NH2
modifications: disulfide 2-7; N-terminus assumed
SMILES: CC[C@H](C)[C@H](NC(=O)[C@H](C)NC(=O)CNC(=O)[C@H](Cc1ccccc1)NC(=O)[C@H](CC(N)=O)NC(=O)[C@@H]1CCCN1C(=O)[C@H](CO)NC(=O)[C@H](CO)NC(=O)[C@H](Cc1c[nH]cn1)NC(=O)[C@H](CCCNC(=N)N)NC(=O)[C@H](CC(C)C)NC(=O)[C@H](Cc1ccccc1)NC(=O)[C@H](CC(N)=O)NC(=O)[C@H](C)NC(=O)[C@H](CC(C)C)NC(=O)[C@H](CCCNC(=N)N)NC(=O)[C@H](CCC(N)=O)NC(=O)[C@@H](NC(=O)[C@H](C)NC(=O)[C@@H]1CSSC[C@H](NC(=O)[C@@H](N)CCCCNC(=O)COCCOCCNC(=O)CC[C@H](NC(=O)CCCCCCCCCCCCCCCCCCC(=O)O)C(=O)O)C(=O)N[C@@H](CC(N)=O)C(=O)N[C@@H]([C@@H](C)O)C(=O)N[C@@H](C)C(=O)N[C@@H]([C@@H](C)O)C(=O)N1)[C@@H](C)O)C(=O)N1CCC[C@H]1C(=O)N[C@@H](CO)C(=O)N[C@@H](CO)C(=O)N[C@H](C(=O)N[C@@H](CC(N)=O)C(=O)N[C@H](C(=O)NCC(=O)N[C@@H](CO)C(=O)N[C@@H](CC(N)=O)C(=O)N[C@H](C(=O)N[C@@H](Cc1ccc(O)cc1)C(N)=O)[C@@H](C)O)C(C)C)[C@@H](C)O
notes: Synthetic acylated analogue of human amylin; also called compound 41
[1]
  hCTR funct. EC50: 4350 pM
[2]
  Ratio hCT/hAmylin funct.: 16.7 ratio
  hAmylin-R funct. EC50: 260 pM

B5: N{Alpha-1}-[(4S)-4-carboxy-4-(19-carboxynonadecanoylamino)butanoyl]-[Glu14,Arg17,Pro21,Pro27,Lys34]-h-amylin (peptide)
peptide: {C20 diacid-γGlu}-KCNTATCATQRLAEFLRHSSPNFGAIPSSTNVGKNTY-NH2
modifications: disulfide 2-7
SMILES: CC[C@H](C)[C@H](NC(=O)[C@H](C)NC(=O)CNC(=O)[C@H](Cc1ccccc1)NC(=O)[C@H](CC(N)=O)NC(=O)[C@@H]1CCCN1C(=O)[C@H](CO)NC(=O)[C@H](CO)NC(=O)[C@H](Cc1c[nH]cn1)NC(=O)[C@H](CCCNC(=N)N)NC(=O)[C@H](CC(C)C)NC(=O)[C@H](Cc1ccccc1)NC(=O)[C@H](CCC(=O)O)NC(=O)[C@H](C)NC(=O)[C@H](CC(C)C)NC(=O)[C@H](CCCNC(=N)N)NC(=O)[C@H](CCC(N)=O)NC(=O)[C@@H](NC(=O)[C@H](C)NC(=O)[C@@H]1CSSC[C@H](NC(=O)[C@H](CCCCN)NC(=O)CC[C@H](NC(=O)CCCCCCCCCCCCCCCCCCC(=O)O)C(=O)O)C(=O)N[C@@H](CC(N)=O)C(=O)N[C@@H]([C@@H](C)O)C(=O)N[C@@H](C)C(=O)N[C@@H]([C@@H](C)O)C(=O)N1)[C@@H](C)O)C(=O)N1CCC[C@H]1C(=O)N[C@@H](CO)C(=O)N[C@@H](CO)C(=O)N[C@H](C(=O)N[C@@H](CC(N)=O)C(=O)N[C@H](C(=O)NCC(=O)N[C@@H](CCCCN)C(=O)N[C@@H](CC(N)=O)C(=O)N[C@H](C(=O)N[C@@H](Cc1ccc(O)cc1)C(N)=O)[C@@H](C)O)C(C)C)[C@@H](C)O
notes: Synthetic acylated analogue of human amylin; also called compound 36
[1]
  hCTR funct. EC50: 1280 pM
[2]
  Ratio hCT/hAmylin funct.: 6.8 ratio
  hAmylin-R funct. EC50: 189 pM

B6: N^α1-[(4S)-4-carboxy-4-(19-carboxynonadecanoylamino)butanoyl]-[Glu14,Arg17,Pro21,Pro25,Pro28,Pro29]-h-amylin (peptide)
peptide: {C20 diacid-γGlu}-KCNTATCATQRLAEFLRHSSPNFGPILPPTNVGSNTY-NH2
modifications: disulfide 2-7
SMILES: CC[C@H](C)[C@H](NC(=O)[C@@H]1CCCN1C(=O)CNC(=O)[C@H](Cc1ccccc1)NC(=O)[C@H](CC(N)=O)NC(=O)[C@@H]1CCCN1C(=O)[C@H](CO)NC(=O)[C@H](CO)NC(=O)[C@H](Cc1c[nH]cn1)NC(=O)[C@H](CCCNC(=N)N)NC(=O)[C@H](CC(C)C)NC(=O)[C@H](Cc1ccccc1)NC(=O)[C@H](CCC(=O)O)NC(=O)[C@H](C)NC(=O)[C@H](CC(C)C)NC(=O)[C@H](CCCNC(=N)N)NC(=O)[C@H](CCC(N)=O)NC(=O)[C@@H](NC(=O)[C@H](C)NC(=O)[C@@H]1CSSC[C@H](NC(=O)[C@H](CCCCN)NC(=O)CC[C@H](NC(=O)CCCCCCCCCCCCCCCCCCC(=O)O)C(=O)O)C(=O)N[C@@H](CC(N)=O)C(=O)N[C@@H]([C@@H](C)O)C(=O)N[C@@H](C)C(=O)N[C@@H]([C@@H](C)O)C(=O)N1)[C@@H](C)O)C(=O)N[C@@H](CC(C)C)C(=O)N1CCC[C@H]1C(=O)N1CCC[C@H]1C(=O)N[C@H](C(=O)N[C@@H](CC(N)=O)C(=O)N[C@H](C(=O)NCC(=O)N[C@@H](CO)C(=O)N[C@@H](CC(N)=O)C(=O)N[C@H](C(=O)N[C@@H](Cc1ccc(O)cc1)C(N)=O)[C@@H](C)O)C(C)C)[C@@H](C)O
notes: Synthetic acylated analogue of human amylin; also called compound 6
[1]
  hCTR funct. EC50: 729 pM
[2]
  Ratio hCT/hAmylin funct.: 5.7 ratio
  hAmylin-R funct. EC50: 128 pM
